Measurements: patent publication US20100203630A1

Molecular target: envelope of the SF162 strain of pseudovirus (HIV, SF162) (UniProt P19550)
Test: cell-based or functional assay

purified b12-IgG1 (antibody)
neutralizing 50% inhibitory concentration (IC50), pseudovirus neutralization assay: 0.026 µg/mL
